The values that follow come from PMC10013841 (Proceedings of the National Academy of Sciences of the …, 2023).

In this experiment the target is SARS-CoV-2 Spike S1 domain (amino acids 14 to 681), HEK293-produced (SARS-CoV-2, UniProt P0DTC2 14-681). The experiment can be described thus: far-Western, overlay or dot blot. The note with it: both partners purified.

B1: cyanovirin-N (natural protein)
chain: LGKFSQTCYNSAIQGSVLTSTCERTNGGYNTSSIDLNSVIENVDGSLKWQPSNFIETCRNTQLAGSSELAAECKTRAQQFVSTKINLDDHIANIDGTLKYE
notes: also called CV-N
As to B1, the binding result is given as “binds”.
